These results are taken from the RNAGym collection of RNA variant scans (doi:10.7554/elife.90254).

B1: OR4K15 (parent)
chain: GUUAACGGUCAUAGGCCAUGGAAACUAGGAGCACCAUUUCGCUGCCAGUGAAGAAAUGAACAAAGAAAAUCUGGGCCAGGCAGGCAUCAAAAGAAAUAGUCUUGCGCUCAACCAGAAAGUCUGUAAUCAUUUUAAGGGUA

The series covers variants of B1. In words: self-cleavage, relative activity (ratio to wild type); higher = more cleavage; in vitro, sequencing; the parent is a self-cleaving ribozyme.
As for GUUAACGGUCGUAGGCCAUGGAAACUAGGAGCACCAUUUCGCUGCCAGUGAAGAAAUGAACAAAGGAAAUCUGGGCCAGGCAGGCAUCAAAAGAAAUAGUCUUGCGCUCAACCAGAAAGUCUGUAAUCAUUUUAAGGGUA, the self-cleavage worked out at 0.88. Consider GUUAACGGUCGUAGGCCAUGGAAACUAGGAGCACCAUUUCGCUGCCAGUGAAGAAAUGAACAAAGUAAAUCUGGGCCAGGCAGGCAUCAAAAGAAAUAGUCUUGCGCUCAACCAGAAAGUCUGUAAUCAUUUUAAGGGUA, for which the self-cleavage turned out to be 1.45. The figure for GUUAACGGUCCUAGGCCAUGGAAACUAGGAGCACCAUUUCGCUGCCAGUGAAGAAAUGAACAAAGAAAAUCUGGGCCAGGCAGGCAUCAAAAGAAAUAGUCUUGCGCUCAACCAGAAAGUCUGCAAUCAUUUUAAGGGUA is 1.12. Under GUUAACGGUCGUAGGCCAUGGAAACUAGGAGCUCCAUUUCGCUGCCAGUGAAGAAAUGAACAAAGAAAAUCUGGGCCAGGCAGGCAUCAAAAGAAAUAGUCUUGCGCUCAACCAGAAAGUCUGUAAUCAUUUUAAGGGUA stands 0.86; under GUUAACGGUCGUAGGCCAUGGAAACUAGGAGCACCGUUUCGCUGCCAGUGAAGAAAUGAACAAAGAAAAUCUGGGCCAGGCAGGCAUCAAAAGAAAUAGUCUUGCGCUCAACCAGAAAGUCUGUAAUCAUUUUAAGGGUA, 0.8; under GUUAACGGUCGUAGGCCAUGGAAACUAGGAGCACCAUUUCGCUGCCAGUGGAGAAAUGAACAAAGAAAAUCUGGGCCAGGCAGGCAUCAAAAGAAAUAGUCUUGCGCUCAACCAGAAAGUCUGUAAUCAUUUUAAGGGUA, 1.15. Under GUUAACGGUCCUAGGCCAUGGAAACUAGGAGCACCAUUUCGCUGCCAGUGAAGAAAUGAACAAAGAAAAUCUGGGCCAGGCAGGCAUCAAAAGAAAUAGUCUUGCGCUCAACCAGAAAGUCCGUAAUCAUUUUAAGGGUA stands 1.46; under GUUAACGGUCGUAGGCCAUGGAAACUAGGAGCACCAUUUCGCUGCCGGUGAAGAAAUGAACAAAGAAAAUCUGGGCCAGGCAGGCAUCAAAAGAAAUAGUCUUGCGCUCAACCAGAAAGUCUGUAAUCAUUUUAAGGGUA, 1.27; under GUUAACGGUCGUAGGCCAUGGAAACUAGGAGCACCAUUUCGCUGCCAGUGAAGAAAUGAUCAAAGAAAAUCUGGGCCAGGCAGGCAUCAAAAGAAAUAGUCUUGCGCUCAACCAGAAAGUCUGUAAUCAUUUUAAGGGUA, 1.02. Turning to GUUAACGGUCGUAGGCCAUGGAAACUAGGAGCACCAUUUCGCUGCCAGUGACGAAAUGAACAAAGAAAAUCUGGGCCAGGCAGGCAUCAAAAGAAAUAGUCUUGCGCUCAACCAGAAAGUCUGUAAUCAUUUUAAGGGUA, the self-cleavage stood at 0.82. Under GUUAACGGUCGUAGGCCAUGGAAACUCGGAGCACCAUUUCGCUGCCAGUGAAGAAAUGAACAAAGAAAAUCUGGGCCAGGCAGGCAUCAAAAGAAAUAGUCUUGCGCUCAACCAGAAAGUCUGUAAUCAUUUUAAGGGUA stands 0.61; under GUUAACGGUCGUAGGCCAUGGAAACUAGGAGCACCAUUUCGCUGCCAGUGAAGGAAUGAACAAAGAAAAUCUGGGCCAGGCAGGCAUCAAAAGAAAUAGUCUUGCGCUCAACCAGAAAGUCUGUAAUCAUUUUAAGGGUA, 1.01; under GUUAACGGUCGUAGGCCAUGGGAACUAGGAGCACCAUUUCGCUGCCAGUGAAGAAAUGAACAAAGAAAAUCUGGGCCAGGCAGGCAUCAAAAGAAAUAGUCUUGCGCUCAACCAGAAAGUCUGUAAUCAUUUUAAGGGUA, 1.04. The figure for GUUAACGGUCGUAGGCCAUGGAAACUAGGAGCACCAUUUCGCUGCCAGUGAAGAAAUGGACAAAGAAAAUCUGGGCCAGGCAGGCAUCAAAAGAAAUAGUCUUGCGCUCAACCAGAAAGUCUGUAAUCAUUUUAAGGGUA is 0.88. Under GUUAACGGUCGUAGGCCAUGGAAACUAGGAGCACCAUUUCGCUGCCAGUGAAGAAAUGUACAAAGAAAAUCUGGGCCAGGCAGGCAUCAAAAGAAAUAGUCUUGCGCUCAACCAGAAAGUCUGUAAUCAUUUUAAGGGUA stands 0.98; under GUUAACGGUCGUAGGCCAUGGAAACUAGGGGCACCAUUUCGCUGCCAGUGAAGAAAUGAACAAAGAAAAUCUGGGCCAGGCAGGCAUCAAAAGAAAUAGUCUUGCGCUCAACCAGAAAGUCUGUAAUCAUUUUAAGGGUA, 1.08; under GUUAACGGUCGUAGGCCAUGGAAACUAGGAGCACCAUUUCGCUGCCAGUGAAGAAAUGAACAAAGAAUAUCUGGGCCAGGCAGGCAUCAAAAGAAAUAGUCUUGCGCUCAACCAGAAAGUCUGUAAUCAUUUUAAGGGUA, 1.23. Regarding GUUAACGGUCGUAGGCCAUGGAAACUAGGAGCACCAUUUCGCUGCCAGUGAAGAAAUGAACAAAGAACAUCUGGGCCAGGCAGGCAUCAAAAGAAAUAGUCUUGCGCUCAACCAGAAAGUCUGUAAUCAUUUUAAGGGUA, the self-cleavage is 0.39. The figure for GUUAACGGUCGUAGGCCAUGGAAACUAGGAGCACCAUUUCGCUGCCAGUGAAGAAAUGAACAAAGAAGAUCUGGGCCAGGCAGGCAUCAAAAGAAAUAGUCUUGCGCUCAACCAGAAAGUCUGUAAUCAUUUUAAGGGUA is 1.13; for GUUAACGGUCCUAGGCCAUGGAAACUAGGAGCACCAUUUCGCUGCCAGUGAAGAAAUGAACAAAGAAAAUCCGGGCCAGGCAGGCAUCAAAAGAAAUAGUCUUGCGCUCAACCAGAAAGUCUGUAAUCAUUUUAAGGGUA it is 0.13; for GUUAACGGUCGUAGGCCAUGGAAACUAGGAGCACCAUUUCGCUGCCAGUGAAGAAAUGAACAAAGAAAAUCUGGGCCAGGCAGGCAUCAAAAGAAAUAGUCUUGCGCUCAACCAGAAAGUCUGUAAUCAUUUUAAGGGUA it is 0.77.
